Data reported in patent publication US20230073692A1 (CYTOMX THERAPEUTICS, published 2023).
Positions count from the first letter of the chain named. In names and notes the source's numbering stands.

B1: cHv83-1b15.G1(L328C)k (antibody, V domains shown)
VH: EVQLVESGGGWVQPGGSLRLSCAASGFTFSSHIMYWVRQAPGKGLEYVSGISSNGLSSYYVDSVKGRFTISRDNSKNLLYVHMGSLKPEDMAMYYCARGGRDRVPAVFDYWGQGTLVTVSS
VL: DIQMTQSPSSLSASIGDRVTITCRASQSIGTFLNWYQQKPGKAPKVLIYVASSLQSGVPSRFIGSGSGTDFTLTISSLQPEDFATYYCQQSYSVPITFGQGTRLEIKR
notes: the name says L328C in the IgG1 constant region; also called [Ag]AB-3; cHv83-1b15.G1k(L328C)k
B2: cHv83-3a23.G1(L328C)k (antibody, V domains shown)
VH: EVQLVESGGGLVQPGGSLRLSCAASGFTFSSYVMHWVRQAPGKGLEYVSGVSSSGDSTFYVDSVKGRFTISRDNSKNTLYLQMGSLRAEDMAVYYCARGGITGAPLVFDIWGQGTMVTVSS
VL: B1 VL with I15V, G30S, T31R, A51T, I63S, S93N, V94T
notes: the name says L328C in the IgG1 constant region; also called [Ag]AB-2; unconjugated antibody of OT1 / OT#1
B3: cHv83-3a23.G1(L328C)k-AGL-01332-93 (OT#1) (other)
VH: B2 VH
VL: B1 VL with I15V, G30S, T31R, A51T, I63S, S93N, V94T
modifications: AGL-01332-93 drug-linker conjugated to the antibody; engineered Cys at 328 (L328C) lies in the IgG1 constant region, outside the VH pieces given
notes: Human IgG1 (L328C) / kappa
B4: cHv83-1b15.G1(L328C)k-AGL-01332-93 (OT#2) (other)
VH: B1 VH
VL: B1 VL
modifications: AGL-01332-93 drug-linker conjugated to the antibody; engineered Cys at 328 (L328C) lies in the IgG1 constant region, outside the VH pieces given
notes: Human IgG1 (L328C) / kappa

Experiments:
Human SLC34A2 [1] = biological target: T1, Human SLC34A2 (human, UniProt O95436 1-690); assay: cell binding, OVCAR3 cells
T1 construct: whole, on cells; also called SLC34A2 on OVCAR3 cells; Rat 1E Human SLC34A2
T1 sequence (looked up): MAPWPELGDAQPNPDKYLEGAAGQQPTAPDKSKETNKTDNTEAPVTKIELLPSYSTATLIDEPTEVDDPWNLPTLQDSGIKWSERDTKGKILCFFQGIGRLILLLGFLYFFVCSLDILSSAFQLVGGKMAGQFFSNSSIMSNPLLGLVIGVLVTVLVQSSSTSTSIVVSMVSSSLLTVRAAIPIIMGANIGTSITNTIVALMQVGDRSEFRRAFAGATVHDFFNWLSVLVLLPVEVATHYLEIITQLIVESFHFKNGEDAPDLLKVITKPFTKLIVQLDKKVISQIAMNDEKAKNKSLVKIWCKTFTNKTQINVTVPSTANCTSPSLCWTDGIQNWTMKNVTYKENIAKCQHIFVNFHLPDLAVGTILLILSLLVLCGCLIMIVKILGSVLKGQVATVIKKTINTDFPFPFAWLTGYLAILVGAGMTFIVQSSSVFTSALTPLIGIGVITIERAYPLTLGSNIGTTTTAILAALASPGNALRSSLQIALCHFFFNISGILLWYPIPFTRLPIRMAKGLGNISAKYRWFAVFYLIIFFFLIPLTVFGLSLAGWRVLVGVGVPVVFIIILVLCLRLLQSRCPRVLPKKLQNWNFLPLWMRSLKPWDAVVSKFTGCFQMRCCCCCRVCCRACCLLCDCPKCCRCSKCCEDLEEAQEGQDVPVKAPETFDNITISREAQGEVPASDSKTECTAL

Rat SLC34A2 = biological target: T2, Rat SLC34A2 (rat, UniProt Q9JJ09 1-695); assay: binding affinity on Rat1E cells expressing rat SLC34A2
T2 construct: whole, on cells; also called Rat1E cells expressing SLC34A2 (Rat)
T2 sequence (looked up): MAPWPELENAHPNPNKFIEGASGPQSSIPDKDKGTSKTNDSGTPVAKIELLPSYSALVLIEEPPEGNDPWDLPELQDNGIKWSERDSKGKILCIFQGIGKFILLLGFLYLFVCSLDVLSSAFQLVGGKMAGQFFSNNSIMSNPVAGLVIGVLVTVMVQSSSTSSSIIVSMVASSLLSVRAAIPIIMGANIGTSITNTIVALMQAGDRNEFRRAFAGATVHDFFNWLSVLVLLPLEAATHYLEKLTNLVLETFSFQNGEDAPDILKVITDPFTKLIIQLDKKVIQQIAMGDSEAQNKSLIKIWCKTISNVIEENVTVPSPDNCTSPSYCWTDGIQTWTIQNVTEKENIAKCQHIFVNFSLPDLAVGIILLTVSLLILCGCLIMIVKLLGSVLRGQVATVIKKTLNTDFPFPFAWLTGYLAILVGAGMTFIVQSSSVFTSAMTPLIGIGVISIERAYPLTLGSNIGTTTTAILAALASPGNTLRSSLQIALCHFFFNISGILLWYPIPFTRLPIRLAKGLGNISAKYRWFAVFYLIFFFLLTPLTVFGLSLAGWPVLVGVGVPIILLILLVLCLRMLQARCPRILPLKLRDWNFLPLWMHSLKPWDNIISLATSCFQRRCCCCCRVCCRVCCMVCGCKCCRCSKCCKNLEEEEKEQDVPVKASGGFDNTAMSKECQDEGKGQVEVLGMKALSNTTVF

Cyno SLC34A2 [2] = biological target: T3, Cyno SLC34A2 (cynomolgus monkey, UniProt A0A2K5UHY1 1-690); assay: binding affinity on Rat1E cells expressing cynomolgus SLC34A2
T3 construct: whole, on cells; Recombinant, on Rat1E cells; also called cynomolgus monkey SLC34A2; Rat1E cells expressing SLC34A2 (Cynomolgus)
T3 sequence: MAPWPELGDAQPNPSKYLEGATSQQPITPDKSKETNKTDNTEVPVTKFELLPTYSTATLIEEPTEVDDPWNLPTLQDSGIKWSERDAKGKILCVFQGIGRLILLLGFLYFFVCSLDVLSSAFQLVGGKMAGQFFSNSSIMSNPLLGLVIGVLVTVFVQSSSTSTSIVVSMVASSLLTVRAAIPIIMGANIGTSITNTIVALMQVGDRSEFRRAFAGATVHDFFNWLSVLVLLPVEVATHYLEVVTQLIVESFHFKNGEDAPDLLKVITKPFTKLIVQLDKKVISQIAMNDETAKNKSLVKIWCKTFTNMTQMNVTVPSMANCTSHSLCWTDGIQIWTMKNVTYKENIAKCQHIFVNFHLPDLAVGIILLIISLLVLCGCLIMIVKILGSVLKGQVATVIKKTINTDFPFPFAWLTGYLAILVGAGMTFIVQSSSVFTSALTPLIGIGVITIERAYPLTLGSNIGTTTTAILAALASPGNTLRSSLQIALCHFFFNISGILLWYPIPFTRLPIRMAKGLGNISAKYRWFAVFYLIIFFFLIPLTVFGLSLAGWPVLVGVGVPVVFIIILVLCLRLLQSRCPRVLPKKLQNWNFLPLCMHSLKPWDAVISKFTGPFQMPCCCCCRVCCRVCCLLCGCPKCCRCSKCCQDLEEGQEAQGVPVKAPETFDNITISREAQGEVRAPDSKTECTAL

Cyno SLC34A2 [3] = biological target: T3, Cyno SLC34A2; assay: cell binding, Rat1E cells expressing cyno SLC34A2
Human SLC34A1 [4] = biological target: T4, Human SLC34A1 (human, UniProt Q06495); assay: flow cytometry on 293-FT cells transiently transfected with human SLC34A1, overlay with isotype control
T4 sequence (target protein, looked up): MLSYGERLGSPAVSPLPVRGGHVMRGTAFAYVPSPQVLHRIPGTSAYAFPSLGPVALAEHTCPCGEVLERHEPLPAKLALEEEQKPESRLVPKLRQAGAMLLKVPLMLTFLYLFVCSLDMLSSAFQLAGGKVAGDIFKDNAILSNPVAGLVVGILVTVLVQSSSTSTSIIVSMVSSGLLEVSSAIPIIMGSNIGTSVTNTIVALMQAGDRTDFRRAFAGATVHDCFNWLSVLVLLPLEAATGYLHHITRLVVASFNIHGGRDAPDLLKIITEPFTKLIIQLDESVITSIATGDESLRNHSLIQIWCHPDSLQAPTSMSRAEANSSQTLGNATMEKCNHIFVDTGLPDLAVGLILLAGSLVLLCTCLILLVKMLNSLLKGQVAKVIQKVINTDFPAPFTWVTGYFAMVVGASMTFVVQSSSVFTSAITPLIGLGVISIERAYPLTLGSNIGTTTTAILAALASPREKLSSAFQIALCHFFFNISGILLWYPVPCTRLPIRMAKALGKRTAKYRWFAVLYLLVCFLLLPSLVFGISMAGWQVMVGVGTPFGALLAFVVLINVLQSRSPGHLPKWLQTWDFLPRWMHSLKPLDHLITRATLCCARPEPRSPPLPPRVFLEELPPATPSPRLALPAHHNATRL

Human SLC34A3 [5] = biological target: T5, Human SLC34A3 (human, UniProt Q8N130); assay: flow cytometry on 293-FT cells transiently transfected with human SLC34A3, overlay with isotype control
T5 sequence (target protein, looked up): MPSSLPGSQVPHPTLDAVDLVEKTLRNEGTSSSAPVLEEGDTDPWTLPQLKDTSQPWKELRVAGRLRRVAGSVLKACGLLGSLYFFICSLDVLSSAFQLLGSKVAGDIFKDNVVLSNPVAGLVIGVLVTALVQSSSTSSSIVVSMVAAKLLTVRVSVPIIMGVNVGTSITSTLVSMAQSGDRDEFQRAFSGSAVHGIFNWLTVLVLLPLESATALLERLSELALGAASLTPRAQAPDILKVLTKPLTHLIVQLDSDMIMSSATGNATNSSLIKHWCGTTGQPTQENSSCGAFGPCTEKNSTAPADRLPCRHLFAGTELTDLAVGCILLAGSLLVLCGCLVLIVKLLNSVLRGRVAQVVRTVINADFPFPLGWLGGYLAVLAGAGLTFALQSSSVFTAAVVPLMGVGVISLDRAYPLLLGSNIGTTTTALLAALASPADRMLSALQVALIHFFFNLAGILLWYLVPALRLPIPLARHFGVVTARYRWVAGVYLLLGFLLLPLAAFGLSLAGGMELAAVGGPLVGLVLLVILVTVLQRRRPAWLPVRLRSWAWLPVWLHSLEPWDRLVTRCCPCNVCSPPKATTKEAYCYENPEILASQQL

Human SLC34A2 [6] = biological target: T1, Human SLC34A2; assay: cell binding, Rat1E cells expressing human SLC34A2
Human SLC34A2 [7] = biological target: T1, Human SLC34A2; assay: binding affinity on Rat1E cells expressing human SLC34A2
Murine SLC34A2 (murine) = Murine SLC34A2 (murine) (UniProt Q9DBP0); assay: cell binding, Rat1E cells expressing murine SLC34A2
Human SLC34A2 [8] = biological target: T1, Human SLC34A2; assay: cell-based or functional assay
Human SLC34A1 [9] = biological target: T4, Human SLC34A1; assay: flow cytometry on 293-FT cells transiently transfected with human SLC34A1, overlay with isotype control ADC
Human SLC34A3 [10] = biological target: T5, Human SLC34A3; assay: flow cytometry on 293-FT cells transiently transfected with human SLC34A3, overlay with isotype control ADC

| Binder | Kd (Human SLC34A2 [1]) | Kd (Rat SLC34A2) | Kd (Cyno SLC34A2 [2]) | Kd (Cyno SLC34A2 [3]) | binding result (Human SLC34A1 [4]) | binding result (Human SLC34A3 [5]) | Kd (Human SLC34A2 [6]) | Kd (Human SLC34A2 [7]) | Bmax (Murine SLC34A2 (murine)) | Kd (Murine SLC34A2 (murine)) | in vitro cytotoxicity in target-positive OVCAR3 cells (Human SLC34A2 [8]) | binding result (Human SLC34A1 [9]) | binding result (Human SLC34A3 [10]) |
| --- | --- | --- | --- | --- | --- | --- | --- | --- | --- | --- | --- | --- | --- |
| B1 | 3.79 nM | 0.246 nM | 0.67 nM | 0.967 nM | no binding | no binding | 1.03 nM | 0.721 nM | 15000 | 0.0631 nM | – | – | – |
| B2 | 2.28 nM | 0.689 nM | 0.17 nM | 0.17 nM | no binding | no binding | 0.254 nM | 0.553 nM | 11300 | 0.0903 nM | – | – | – |
| B3 | – | 0.686 nM | 0.227 nM | – | – | – | – | 0.411 nM | – | – | > 10 fold better EC50 than the benchmark ADC | no binding | no binding |
| B4 | – | 0.913 nM | 1.2 nM | – | – | – | – | 1.76 nM | – | – | > 10 fold better EC50 than the benchmark ADC | no binding | no binding |
